* marks the point of attachment. Dnp = O=[N+]([O-])c1ccc(*)c([N+](=O)[O-])c1
Molecular target: SARS-CoV-2 main protease (M^pro), tag-free, native N and C termini (SARS-CoV-2)

B1: FRET substrate MCA-AVLQSGFR-Lys(Dnp)-Lys-NH2 (peptide)
peptide: {MCA}-AVLQSGFRK(Dnp)K-NH2
  Michaelis constant (Km) of the FRET-based enzymatic assay; M^pro 100 nM, substrate at various concentrations, Lineweaver-Burk plot: 1.41 µM
